Here are results for 4 molecules from PMC8359077, “DNA aptamer against EV-A71 VP1 protein: selection and application”.

For data set [1], the target named is T1, EV-A71 VP1 (capsid protein) (Enterovirus A71) (UniProt Q66478).
T1 sequence: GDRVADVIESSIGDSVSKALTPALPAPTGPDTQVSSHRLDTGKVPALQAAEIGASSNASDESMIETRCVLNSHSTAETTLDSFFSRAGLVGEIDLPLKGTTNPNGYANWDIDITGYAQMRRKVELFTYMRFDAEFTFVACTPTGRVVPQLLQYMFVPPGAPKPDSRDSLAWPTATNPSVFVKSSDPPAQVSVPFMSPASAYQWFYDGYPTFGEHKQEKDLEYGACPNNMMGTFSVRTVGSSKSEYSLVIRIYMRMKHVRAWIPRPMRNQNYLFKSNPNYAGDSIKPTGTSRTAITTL
In words: ELISA. Particulars: 5 mM Mg2+; VP1 coated at 200 ng/mL; unit given as nm; given with U (uracil) mixed with t in a DNA aptamer; U may stand for T; 1x PBS, 5 mM MgCl2, 1% BSA, 1 ug/mL tRNA, 0.02% Tween-20, room temperature, 1 h; pH not stated. For orientation: An ELISA detects its analyte on a solid surface through an enzyme-linked reagent.

The next data set concerns the target Bovine serum albumin (Bos taurus (Bovine), UniProt P02769 25-607). In words: ELONA; PBS, 5 mM MgCl2, 1% BSA, 1 ug/mL tRNA, 0.02% Tween-20, RT; VP1 coated on plate. Particulars: label: 5'-biotin.

Bovine serum albumin, sequence (P02769 25-607): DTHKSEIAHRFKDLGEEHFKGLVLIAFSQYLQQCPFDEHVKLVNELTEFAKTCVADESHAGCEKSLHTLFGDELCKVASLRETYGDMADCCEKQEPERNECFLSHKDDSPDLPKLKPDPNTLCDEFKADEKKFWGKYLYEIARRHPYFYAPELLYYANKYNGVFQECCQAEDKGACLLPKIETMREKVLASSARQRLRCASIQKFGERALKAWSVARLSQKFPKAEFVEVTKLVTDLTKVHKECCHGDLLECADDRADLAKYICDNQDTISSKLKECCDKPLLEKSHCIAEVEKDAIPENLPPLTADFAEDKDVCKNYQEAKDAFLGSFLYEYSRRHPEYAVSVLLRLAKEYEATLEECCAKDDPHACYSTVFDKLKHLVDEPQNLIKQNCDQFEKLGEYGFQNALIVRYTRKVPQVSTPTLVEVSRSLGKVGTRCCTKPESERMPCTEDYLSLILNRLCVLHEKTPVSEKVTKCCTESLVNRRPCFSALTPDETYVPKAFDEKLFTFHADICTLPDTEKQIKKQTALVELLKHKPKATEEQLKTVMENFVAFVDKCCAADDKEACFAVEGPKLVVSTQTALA

As to “ACTAAGCCACCGTGTCCAUUCGAUUCGAUCUAAUUUGGUUCUUUCCUCACUUUUCAGUGCUGCGUCACUCUGGAU [V21]”, the Kd – broadly, the free concentration of one partner at which half of the binding sites on the other are occupied at equilibrium, for simple one-to-one binding – in data set [1] is 4.55 nM.
“ACTAAGCCACCGTGTCCAUCAAUGGUGUGUGCAUUCGUGUGUUGUGUUGUUUGUUGUUUGCUGCGUCACUCUGGAU [V7]” gave a Kd in data set [1] of 32.7 nM.
In the case of “ACTAAGCCACCGTGTCCACCCUCGCCGAGUUUUCGUAACUAUAUCUUGUGGUUCCUAUUGCUGCGUCACUCUGGAU [V11]”, the Kd in data set [1] stood at 4.28 nM.

B1: V11 (ssDNA)
DNA: ACTAAGCCACCGTGTCCACCCTCGCCGAGTTTTCGTAACTATATCTTGTGGTTCCTATTGCTGCGTCACTCTGGAT
modifications: dU at positions 22,30,31,32,33,36,40,42,44,46,47,49,52,53,56,58,59,62,66,70,72,76 (printed 'U, uracil'; every T 3' of the 18-nt primer; whether the dU carries a C5 group is not stated)
As to B1, in the data set with Bovine serum albumin, the binding result was “no binding”.
